The record followed here is patent US20260167699A1 (Chugai, published 2026).

Sequences and labels used below:
B1: GpH7-A5/GpH7-B3 variant Y296_10E/GpL16-k0 (antibody, human IgG1, kappa)
heavy 1: not shown
heavy 2: not shown
light: DIVMTQSPLSLPVTPGEPASISCQASESLVHSNRNTYLHWYLQKPGQSPQLLIYKVSNRFSGVPDRFSGSGSGTDFTLKISRVEAEDVGVYYCSQNTHVPPTFGQGTKVEIERTVAAPSVFIFPPSDEQLKSGTASVVCLLNNFYPREAKVQWKVDNALQSGNSQESVTEQDSKDSTYSLSSTLTLSKADYEKHKVYACEVTHQGLSSPVTKSFNRGEC
notes: heterodimerized IgG1, one H chain mutated; also called He Ab; copies: 1 + 1 + 2
B2: GpH7-A5/GpH7-B3 variant Y296_13S/GpL16-k0 (antibody, human IgG1, kappa)
heavy 1: not shown
heavy 2: not shown
light: B1 light
notes: as for B1
B3: GpH7-A5/GpH7-B3 variant Y300_14T/GpL16-k0 (antibody, human IgG1, kappa)
heavy 1: not shown
heavy 2: not shown
light: B1 light
notes: as for B1
B4: GpH7-A5/GpH7-B3 variant Y300_11K/GpL16-k0 (antibody, human IgG1, kappa)
heavy 1: not shown
heavy 2: not shown
light: B1 light
notes: as for B1
B5: GpH7-A5/GpH7-B3 variant Y296_16H/GpL16-k0 (antibody, human IgG1, kappa)
heavy 1: not shown
heavy 2: not shown
light: B1 light
notes: as for B1
B6: GpH7-A5/GpH7-B3 variant Y296_20W/GpL16-k0 (antibody, human IgG1, kappa)
heavy 1: not shown
heavy 2: not shown
light: B1 light
notes: as for B1
B7: GpH7-A5/GpH7-B3 variant Y300_13S/GpL16-k0 (antibody, human IgG1, kappa)
heavy 1: not shown
heavy 2: not shown
light: B1 light
notes: as for B1
B8: GpH7-A5/GpH7-B3 variant Y300_07I/GpL16-k0 (antibody, human IgG1, kappa)
heavy 1: not shown
heavy 2: not shown
light: B1 light
notes: as for B1
B9: GpH7-A5/GpH7-B3 variant Y296_19Q/GpL16-k0 (antibody, human IgG1, kappa)
heavy 1: not shown
heavy 2: not shown
light: B1 light
notes: as for B1
B10: GpH7-A5/GpH7-B3 variant Y300_02A/GpL16-k0 (antibody, human IgG1, kappa)
heavy 1: not shown
heavy 2: not shown
light: B1 light
notes: as for B1
B11: GpH7-A5/GpH7-B3 variant Y300_16H/GpL16-k0 (antibody, human IgG1, kappa)
heavy 1: not shown
heavy 2: not shown
light: B1 light
notes: as for B1
B12: GpH7-A5/GpH7-B3 variant Y300_10E/GpL16-k0 (antibody, human IgG1, kappa)
heavy 1: not shown
heavy 2: not shown
light: B1 light
notes: as for B1
B13: GpH7-A5/GpH7-B3 variant Y300_09D/GpL16-k0 (antibody, human IgG1, kappa)
heavy 1: not shown
heavy 2: not shown
light: B1 light
notes: as for B1
B14: GpH7-A5/GpH7-B3 variant Y300_04F/GpL16-k0 (antibody, human IgG1, kappa)
heavy 1: not shown
heavy 2: not shown
light: B1 light
notes: as for B1
B15: GpH7-A5/GpH7-B3 variant Y296_18N/GpL16-k0 (antibody, human IgG1, kappa)
heavy 1: not shown
heavy 2: not shown
light: B1 light
notes: as for B1
B16: GpH7-A5/GpH7-B3 variant Y300_01G/GpL16-k0 (antibody, human IgG1, kappa)
heavy 1: not shown
heavy 2: not shown
light: B1 light
notes: as for B1
B17: GpH7-A5/GpH7-B3 variant Y300_18N/GpL16-k0 (antibody, human IgG1, kappa)
heavy 1: not shown
heavy 2: not shown
light: B1 light
notes: as for B1
B18: GpH7-A5/GpH7-B3 variant Y300_03V/GpL16-k0 (antibody, human IgG1, kappa)
heavy 1: not shown
heavy 2: not shown
light: B1 light
notes: as for B1
B19: GpH7-A5/GpH7-B3 variant Y300_08L/GpL16-k0 (antibody, human IgG1, kappa)
heavy 1: not shown
heavy 2: not shown
light: B1 light
notes: as for B1
B20: GpH7-A5/GpH7-B3 variant Y296_12R/GpL16-k0 (antibody, human IgG1, kappa)
heavy 1: not shown
heavy 2: not shown
light: B1 light
notes: as for B1
B21: GpH7-A5/GpH7-B3 variant Y300_19Q/GpL16-k0 (antibody, human IgG1, kappa)
heavy 1: not shown
heavy 2: not shown
light: B1 light
notes: as for B1
B22: GpH7-A5/GpH7-B3 variant Y296_14T/GpL16-k0 (antibody, human IgG1, kappa)
heavy 1: not shown
heavy 2: not shown
light: B1 light
notes: as for B1
B23: GpH7-A5/GpH7-B3 variant Y300_06M/GpL16-k0 (antibody, human IgG1, kappa)
heavy 1: not shown
heavy 2: not shown
light: B1 light
notes: as for B1
B24: GpH7-A5/GpH7-B3 variant Y296_11K/GpL16-k0 (antibody, human IgG1, kappa)
heavy 1: not shown
heavy 2: not shown
light: B1 light
notes: as for B1

Residue numbers refer to the chain shown, from its start.

T3 sequence (P08637 other isoform, or with tags, fused parts or gaps): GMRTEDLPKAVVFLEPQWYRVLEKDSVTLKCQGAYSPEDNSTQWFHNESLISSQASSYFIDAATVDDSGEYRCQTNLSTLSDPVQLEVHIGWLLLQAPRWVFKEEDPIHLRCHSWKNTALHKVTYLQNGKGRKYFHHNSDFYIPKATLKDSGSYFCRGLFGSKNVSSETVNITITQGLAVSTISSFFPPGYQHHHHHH

The target of the first assay is T1, FcγRIa extracellular domain, C-terminal His tag (human, UniProt P12314 16-292).
T1 construct: extracellular domain; also called 1a
T1 sequence (P12314 other isoform, or with tags, fused parts or gaps): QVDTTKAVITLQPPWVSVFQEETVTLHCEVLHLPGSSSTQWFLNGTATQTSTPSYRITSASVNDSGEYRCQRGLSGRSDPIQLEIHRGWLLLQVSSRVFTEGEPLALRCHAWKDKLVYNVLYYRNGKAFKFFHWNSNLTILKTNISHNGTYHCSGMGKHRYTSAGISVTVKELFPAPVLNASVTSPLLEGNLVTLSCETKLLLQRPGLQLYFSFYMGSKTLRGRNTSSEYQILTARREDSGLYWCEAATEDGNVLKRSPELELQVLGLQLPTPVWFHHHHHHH
Nature of the assay: SPR; He Ab vs HeCon Ab (GpH7-A5/GpH7-B3/GpL16-k0)=100.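 Also: surface plasmon resonance at 25 °C with the test antibody captured on a sensor chip via antigenic peptide, protein L or protein A/G and FcγR flowed over as analyte.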 Background: In SPR one partner is held on a chip, and binding of the other changes the refractive index at the surface.
Experimental: (§1) The antibody of interest was analyzed for its interaction with FcγR using a BiaCore™ T100, BiaCore™ A100, or BiaCore™ 4000 surface plasmon resonance system (GE Healthcare Japan Corp.). The running buffer used was HBS-EP+ (GE Healthcare Japan Corp.). The assay temperature was set to 25° C. The sensor chips used were: a chip prepared by immobilizing antigenic peptides onto Series S Sensor Chip CM5 (GE Healthcare Japan Corp.) by the amine coupling method; a chip prepared by immobilizing antigenic peptides biotinylated in advance onto Series S Sensor Chip SA (certified) (GE Healthcare Japan Corp.) through their interaction; a chip prepared by immobilizing protein L (ACTIGEN, BioVision, Inc.) onto Series S Sensor Chip CM5 (GE Healthcare Japan Corp.); and a chip prepared by immobilizing protein A/G (Thermo Fisher Scientific K.K.) onto Series S Sensor Chip CM5 (GE Healthcare Japan Corp.). The antibody of interest was captured onto any of these chips and allowed to interact with FcγR diluted with a running buffer. The antibody captured on the chip was washed off through the reaction of 10 mM glycine-HCl (pH 1.5) to regenerate the chip, which was repetitively used.
For B1, the “He/Con 1a” value stood at 102%.
On the same count and under the same terms, the value for B2 was 102%; that for B3 was 105%.
With B4, the “He/Con 1a” value amounted to 101%.
Turning to B5, the “He/Con 1a” value is 103%.
Same read-out and setting: the same measure for B6: 107%.
For B7, the “He/Con 1a” value came to 105%.
Still for that read-out and setting: the value for B8 was 102%; that for B9 was 108%; that for B10 was 106%.
The same measure, in the same setting: the value for B11 was 105%; that for B12 was 108%.
Same read-out and setting: the value for B13 was 106%; that for B14 was 102%.
For the molecule B15, the “He/Con 1a” value is 102%.
For the molecule B16, the “He/Con 1a” value came to 110%.
B17: the “He/Con 1a” value was found to be 101%.
The same measure, in the same setting: the same measure for B18: 110%.
B19: the “He/Con 1a” value was determined as 107%.
On the same count and under the same terms, the same measure for B20: 103%; for B21: 106%.
For the molecule B22, the “He/Con 1a” value turned out to be 102%.
On the same count and under the same terms, the same measure for B23: 106%; for B24: 102%.

A further assay deals with T2, FcγRIIb extracellular domain, C-terminal His tag (human, UniProt P31994 43-217).
T2 construct: extracellular domain; also called 2b
T2 sequence: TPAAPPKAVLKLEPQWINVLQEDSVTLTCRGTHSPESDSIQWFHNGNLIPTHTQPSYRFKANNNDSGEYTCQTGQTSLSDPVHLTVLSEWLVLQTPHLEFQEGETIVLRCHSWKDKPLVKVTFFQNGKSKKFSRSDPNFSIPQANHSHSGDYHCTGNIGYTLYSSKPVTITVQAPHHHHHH
The assay is described as above.
Experimental: as §1
For B1, the “He/Con 2b” value amounted to 99.4%.
B2: the “He/Con 2b” value is 87.5%.
On to B3, for which the “He/Con 2b” value was 72.7%.
Turning to B4, the “He/Con 2b” value stood at 67.4%.
The same measure, in the same setting: the same measure for B5: 93.5%.
B6: the “He/Con 2b” value amounted to 105%.
Turning to B7, the “He/Con 2b” value is 70.4%.
Same read-out and setting: the value for B8 was 97.4%; that for B9 was 90.5%; that for B10 was 90.5%.
Take B11: the “He/Con 2b” value was found to be 114%.
As to B12, the “He/Con 2b” value came to 175%.
Take B13: the “He/Con 2b” value came to 122%.
In the case of B14, the “He/Con 2b” value stood at 106%.
The same measure, in the same setting: the value for B15 was 92.8%.
Same read-out and setting: the same measure for B16: 63.2%; for B17: 92.7%; for B18: 96.5%.
On the same count and under the same terms, the same measure for B19: 96.1%.
As to B20, the “He/Con 2b” value was 80.5%.
As to B21, the “He/Con 2b” value was 142%.
The same measure, in the same setting: the value for B22 was 89.4%; that for B23 was 110%; that for B24 was 73.8%.

Another assay addresses T3, FcγRIIIa extracellular domain, C-terminal His tag (human, UniProt P08637 17-208).
T3 construct: extracellular domain; also called 3a
Described as above.
Experimental: as §1
In the case of B1, the “He/Con 3a” value came out at 76.8%.
Same read-out and setting: the same measure for B2: 58.1%.
Same read-out and setting: the same measure for B3: 92.8%; for B4: 63.7%.
B5: the “He/Con 3a” value stood at 69.1%.
Take B6: the “He/Con 3a” value stood at 127%.
Consider B7, for which the “He/Con 3a” value is 80.3%.
On the same count and under the same terms, the same measure for B8: 103%; for B9: 71.4%; for B10: 88.1%.
Still for that read-out and setting: the same measure for B11: 102%.
Still for that read-out and setting: the same measure for B12: 113%; for B13: 104%; for B14: 100%.
B15: the “He/Con 3a” value is 67.9%.
On to B16, for which the “He/Con 3a” value worked out at 88.6%.
For B17, the “He/Con 3a” value was determined as 96%.
Still for that read-out and setting: the value for B18 was 83.8%; that for B19 was 114%; that for B20 was 66.5%.
As to B21, the “He/Con 3a” value stood at 105%.
On the same count and under the same terms, the same measure for B22: 60.7%; for B23: 106%; for B24: 53.3%.

Another assay has as its target T4, FcγRIIa(R) extracellular domain, C-terminal His tag (human, UniProt P12318 34-217).
T4 construct: extracellular domain; also called 2aR
T4 sequence: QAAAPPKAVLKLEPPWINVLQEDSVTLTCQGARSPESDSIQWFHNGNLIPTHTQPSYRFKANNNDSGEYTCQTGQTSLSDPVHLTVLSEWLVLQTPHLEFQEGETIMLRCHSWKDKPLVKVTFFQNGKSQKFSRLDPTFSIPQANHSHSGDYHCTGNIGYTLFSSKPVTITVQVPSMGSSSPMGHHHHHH
The assay is described as above.
Experimental: as §1
B1: the “He/Con 2aR” value stood at 98.2%.
Turning to B2, the “He/Con 2aR” value was determined as 97.5%.
On to B3, for which the “He/Con 2aR” value was determined as 78.6%.
On the same count and under the same terms, the value for B4 was 73.1%.
Same read-out and setting: the same measure for B5: 100%; for B6: 105%; for B7: 72.4%.
Consider B8, for which the “He/Con 2aR” value is 90.9%.
In the case of B9, the “He/Con 2aR” value stood at 97.9%.
For B10, the “He/Con 2aR” value was determined as 92.9%.
For the molecule B11, the “He/Con 2aR” value was determined as 103%.
On to B12, for which the “He/Con 2aR” value is 127%.
For the molecule B13, the “He/Con 2aR” value stood at 105%.
On the same count and under the same terms, the same measure for B14: 103%; for B15: 99.6%; for B16: 66.6%.
In the case of B17, the “He/Con 2aR” value turned out to be 96.2%.
Same read-out and setting: the value for B18 was 96.8%; that for B19 was 96.9%; that for B20 was 95.3%.
In the case of B21, the “He/Con 2aR” value came to 119%.
The same measure, in the same setting: the same measure for B22: 98.6%; for B23: 105%; for B24: 90.3%.

For another assay, the target named is T5, FcγRIIa(H) extracellular domain, C-terminal His tag (human, UniProt P12318 34-217).
T5 construct: extracellular domain; also called 2aH
T5 sequence: T4 sequence with R134H
The assay is described as above.
Experimental: as §1
With B1, the “He/Con 2aH” value is 94%.
For the molecule B2, the “He/Con 2aH” value was 96.1%.
Still for that read-out and setting: the same measure for B3: 104%; for B4: 74.2%.
Same read-out and setting: the same measure for B5: 101%; for B6: 95.4%; for B7: 97.8%.
B8: the “He/Con 2aH” value was 120%.
Still for that read-out and setting: the same measure for B9: 94.3%.
As to B10, the “He/Con 2aH” value came out at 104%.
Same read-out and setting: the value for B11 was 105%; that for B12 was 108%; that for B13 was 101%.
Consider B14, for which the “He/Con 2aH” value turned out to be 103%.
For B15, the “He/Con 2aH” value was 101%.
In the case of B16, the “He/Con 2aH” value was 82.6%.
As to B17, the “He/Con 2aH” value is 101%.
The same measure, in the same setting: the same measure for B18: 109%.
Still for that read-out and setting: the same measure for B19: 120%; for B20: 89.1%.
On the same count and under the same terms, the same measure for B21: 107%; for B22: 97.2%.
In the case of B23, the “He/Con 2aH” value worked out at 116%.
The same measure, in the same setting: the same measure for B24: 83.7%.
